According to US20250333541A1, “ANTIBODY, AND DRUG CONJUGATE AND USE THEREOF” (EVOPOINT BIOSCIENCES CO., LTD., priority 2022, published 2025):
Residue numbers refer to the chain shown, from its start.

B1: 22F11H5-hz1 (antibody, human IgG1, kappa, V domains shown)
VH: QVQLVQSGAEVKQPGASVKVSCKASGYTFTTYWMHWVRQAPGQGLEWMGMIDPSDSYTTYAQKFQGRVTLTVDTSTSTAYMELSSLRSEDTAVYYCARGSGPGLFAYWGQGTLVTVSS
VL: DIQETQSPSSLSASVGDRVTITCRASQDIRNYLNWYQQKPGKAPKLLIYHTSRLQSGVPSRFSGSGSGTDYTLTISSLQPEDFATYYCQQGNMPPYTFGQGTKVEIKR
notes: Humanized IgG1 kappa
B2: 27H8H3-hz1 (antibody, human IgG1, kappa, V domains shown)
VH: B1 VH with Q13K, T59S, A97T
VL: B1 VL with D28G, R30S, Q55H, G66V, Y71F, Y87F, M93T, P94L
notes: Humanized IgG1 kappa

Key:
[1] = biological target: T1, tissue factor (TF) on the surface of TF-positive tumor cells (human, UniProt P13726 33-295); test: cell ELISA on fixed NCI-H358 cells
T1 construct: whole, on cells; The cell line used is named under assay or readout in each row; also called TF on NCI-H358 cells; TF on KYSE520 cells
Method: TF antigen-positive cells (MDA-MB-231 or NCI-H358 cells) were seeded into a 96-well plate at 5×10⁴ cells/well one day prior to the experiment. On the day of the experiment, the culture supernatant was removed, each well was washed once with 300 μL of PBS, and 100 μL of 4% paraformaldehyde was added to each well for immobilization at room temperature for 20 min. The paraformaldehyde was removed, and each well was washed twice with 300 μL of PBS, and 100 μL of 2% BSA in PBS was added to each well for blocking at 37° C. for 2 h. After the blocking was completed, 30 μL of the test sample (hybridoma supernatant or purified antibody) was added to each well and the plate was incubated at 37° C. for 2 h. The liquid was removed, and each well was washed three times with 300 μL of PBST. 100 μL of HRP-conjugated secondary antibody in 2% BSA was added to each well, and the plate was incubated at 37° C. for 1 h. […] The secondary antibody was removed, each well was washed five times with 300 μL of PBST, and 100 μL of TMB substrate (Huzhou InnoReagents Co., Ltd., TMB-S-004) was added to each well for color development for 5-20 min. 50 μL of 2 N HCl was added to each well to stop the reaction, and OD450 nm values were read using a microplate reader (manufacturer: MD, model: SpectraMax) to determine the binding of the samples to TF-positive cells.
The assay was performed as described in the general methods. Briefly, TF antigen-positive NCI-H358 cells were digested with trypsin, collected, seeded into a 96-well plate at 5×10⁴ cells/well and incubated overnight, and then immobilized with 4% paraformaldehyde. After the paraformaldehyde was removed and the cells were washed with PBS, the plate was blocked with 2% BSA at 37° C. for 2 h. Each of the antibodies obtained by the gradient dilution (starting at 10 μg/mL, 3-fold graded dilution, 11 concentration points) was added. The plate was incubated at 37° C. for 2 h.

[2] = biological target: T1, tissue factor (TF) on the surface of …; test: flow cytometry on KYSE520 cells
Method: A TF low/medium-expressing cell line NCI-H358 (source: Nanjing Cobioer, CBP60136) and a TF high-expressing cell line KYSE520 (source: Nanjing Cobioer, CBP60658) were digested with trypsin, collected by centrifugation, and washed three times with pre-cooled PBS. The cells were resuspended in 1% BSA and seeded into a 96-well sharp-bottom plate at 3×10⁵ cells/well. Each of the antibodies obtained by the gradient dilution was added, and the plate was incubated at 4° C. for 1 h. The cells were washed three times with pre-cooled PBS. 1 μL of anti-human fluorescent secondary antibody (APC anti-human IgG Fc Antibody, Biolegend, 410712) was added to each well, and the plate was incubated at 4° C. for 0.5 h. The cells were washed three times with pre-cooled PBS, resuspended, and detected by a flow cytometer (Sony, LE-SA3800GA). The data were imported into GraphPad software for curve fitting.

[3] = biological target: T1, tissue factor (TF) on the surface of …; test: cell-based or functional assay

Row | Binder | EC50 [1] [µg/mL] | EC50 [2] [µg/mL] | Endocytosis rate (%) on NCI-H358 cells, 2 h [3] [%] | Endocytosis rate (%) on NCI-H358 cells, 4 h [3] [%]
1 | B1 | 0.012 | 0.0357 | 34.3 | 56.1
2 | B2 | 0.0348 | 0.0594 | 49.2 | 73.4
